This is an account of results in the supplement of paper PMC7125110.

± gives the standard error. This sample holds only a part of the variants without activity. Where only a bound is given, the exact number is not on record here.

B1: glmS ribozyme (parent)
chain: AUAAAAGCGCCAGAACUACAGAAAUGUAGUUGACGAGGAGGAGGUUUAUCGAAUUUUCGGCGGAUGCCUCCAAA

Conditions in all cases: with glucosamine-6-phosphate
Variants of B1 are the subject of series [1]. Description: self-cleavage kobs at 40 uM GlcN6P; higher = faster cleavage; RNA array. The method in brief: (§1)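 Glucosamine-6-phosphate in HEPES/KCl/Mg(OAc)2 buffer, at 40 μM to 10 mM, was flowed over barcoded ribozyme variants transcribed in situ by E. coli RNA polymerase on sequenced MiSeq chips. Tracking was through a hybridised Cy3 probe at 37 °C. kobs, kcat and KM came from exponential decay fits and weighted Michaelis–Menten fits of normalised per-tile medians.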

In series [2] the parent is B1. Description: self-cleavage kobs at 160 uM GlcN6P; higher = faster cleavage; RNA array. The procedure, abridged: as §1
Variants of B1 are the subject of series [3]. Description: self-cleavage kobs at 2500 uM GlcN6P; higher = faster cleavage; RNA array. The method in brief:
as §1

In series [4] the parent is B1. Briefly: self-cleavage kobs at 640 uM GlcN6P; higher = faster cleavage; RNA array. The method in brief: as §1
The variants in series [5] derive from B1. Briefly: self-cleavage kobs at 10000 uM GlcN6P; higher = faster cleavage; RNA array. The method in brief:
as §1

Consider AUAAAAGCGCCAGAACUACAGAAAUGUAGUGGACGAGGAGGAGGUUUAUCGAAUUUGCGGCGGAUGCCUCCAAA, for which the “self-cleavage kobs at 40 uM GlcN6P” value with glucosamine-6-phosphate [1] is below 1e-05 s⁻¹.
For AUAAAAGCGCCAGAACUACAGAAAUGUAGUUGACGAGAAGGAGGUUCAUCGAAUUUUCGGCGGAUGCCUCCAAA, the “self-cleavage kobs at 40 uM GlcN6P” value with glucosamine-6-phosphate [1] is below 1e-05 s⁻¹. For the same variant, the “self-cleavage kobs at 160 uM GlcN6P” value in the series with glucosamine-6-phosphate [2] is below 1e-05 s⁻¹. Besides, in the series with glucosamine-6-phosphate [3], the “self-cleavage kobs at 2500 uM GlcN6P” value is below 1e-05 s⁻¹.
In the case of AUAAAAGCGCCAGAACUACAGAAAUGUAGUUGACGAGGAGGAGGUUUACCGAAUUUUCGGCGGAUCCCUCCAAA, the “self-cleavage kobs at 40 uM GlcN6P” value with glucosamine-6-phosphate [1] is below 1e-05 s⁻¹. Moreover, the “self-cleavage kobs at 160 uM GlcN6P” value with glucosamine-6-phosphate [2] is below 1e-05 s⁻¹. Also, in the series with glucosamine-6-phosphate [4], the “self-cleavage kobs at 640 uM GlcN6P” value is below 1e-05 s⁻¹. In addition, the “self-cleavage kobs at 10000 uM GlcN6P” value with glucosamine-6-phosphate [5] was below 1e-05 s⁻¹.
In the case of AUAAAAGCGACAGAACUACAGAAAUGUAGUUGACGAGGAGGAGGUUUAUCGAAUUUUCGGCGGAUGCCUGCAAA, in the series with glucosamine-6-phosphate [1], the “self-cleavage kobs at 40 uM GlcN6P” value is 2.53e-05 ± 1e-05 s⁻¹. Besides, in the series with glucosamine-6-phosphate [4], the “self-cleavage kobs at 640 uM GlcN6P” value is 0.000116 ± 1.8e-05 s⁻¹.
In the case of AUAAAAUCGCCAGAACUACAGAAAUGUAGUUGACGAGGAGGAGGUUUAUCGAACUUUCGGCGGAUGCCUCCAAA, the “self-cleavage kobs at 40 uM GlcN6P” value in the series with glucosamine-6-phosphate [1] is below 1e-05 s⁻¹. The “self-cleavage kobs at 160 uM GlcN6P” value with glucosamine-6-phosphate [2] was below 1e-05 s⁻¹. Further, the “self-cleavage kobs at 640 uM GlcN6P” value in the series with glucosamine-6-phosphate [4] is below 1e-05 s⁻¹. Moreover, the “self-cleavage kobs at 10000 uM GlcN6P” value with glucosamine-6-phosphate [5] was below 1e-05 s⁻¹.
On to AUAAAAGCGUCAGAACUACAGAAAUGUAGUUGACGAGGAGGAGGUUUAUCGUAUUUUCGGCGGAUGCCUCCAAA, for which the “self-cleavage kobs at 40 uM GlcN6P” value with glucosamine-6-phosphate [1] is below 1e-05 s⁻¹. The “self-cleavage kobs at 160 uM GlcN6P” value with glucosamine-6-phosphate [2] is below 1e-05 s⁻¹. In the series with glucosamine-6-phosphate [4], the “self-cleavage kobs at 640 uM GlcN6P” value is below 1e-05 s⁻¹. In the series with glucosamine-6-phosphate [3], the “self-cleavage kobs at 2500 uM GlcN6P” value is below 1e-05 s⁻¹. Further, the “self-cleavage kobs at 10000 uM GlcN6P” value with glucosamine-6-phosphate [5] is below 1e-05 s⁻¹.
For the variant AUAAAAGCGCCAGAACUACAGAAAUGUAGUUGACUAGGAGGAGGUUUAUCGAAUUUUUGGCGGAUGCCUCCAAA, in the series with glucosamine-6-phosphate [1], the “self-cleavage kobs at 40 uM GlcN6P” value is below 1e-05 s⁻¹. Besides, in the series with glucosamine-6-phosphate [2], the “self-cleavage kobs at 160 uM GlcN6P” value is below 1e-05 s⁻¹. Further, the “self-cleavage kobs at 2500 uM GlcN6P” value in the series with glucosamine-6-phosphate [3] was below 1e-05 s⁻¹. For the same variant, in the series with glucosamine-6-phosphate [5], the “self-cleavage kobs at 10000 uM GlcN6P” value was below 1e-05 s⁻¹.
AUAAAAGCGCCAGAACUACAGAAAUGUAGUUGACGAAGAGGAGGUUUAUGGAAUUUUAGGCGGAUGACUCUAAA: the “self-cleavage kobs at 40 uM GlcN6P” value in the series with glucosamine-6-phosphate [1] stood at 4.39e-05 ± 1.4e-05 s⁻¹. Also, in the series with glucosamine-6-phosphate [3], the “self-cleavage kobs at 2500 uM GlcN6P” value stood at 6.21e-05 ± 1.7e-05 s⁻¹.
As for AUAAAAGCGCCAGAACUACAGAAAUGUAGUUGGCGAGGAGGAGGUUUAUCGAAUUUUCGGUGGAUGCCUCCAAA, the “self-cleavage kobs at 40 uM GlcN6P” value in the series with glucosamine-6-phosphate [1] was below 1e-05 s⁻¹. Also, the “self-cleavage kobs at 10000 uM GlcN6P” value in the series with glucosamine-6-phosphate [5] was below 1e-05 s⁻¹.
With AUAAAAGCGCCAGAACUACAGAAAUGUAGUUUACGAGGAGGACGUUUAUCGAAUUUUCGGCGGAUGCCUCCAAA, in the series with glucosamine-6-phosphate [1], the “self-cleavage kobs at 40 uM GlcN6P” value is below 1e-05 s⁻¹. In the series with glucosamine-6-phosphate [2], the “self-cleavage kobs at 160 uM GlcN6P” value is below 1e-05 s⁻¹. Further, in the series with glucosamine-6-phosphate [4], the “self-cleavage kobs at 640 uM GlcN6P” value was below 1e-05 s⁻¹. Moreover, the “self-cleavage kobs at 2500 uM GlcN6P” value with glucosamine-6-phosphate [3] was below 1e-05 s⁻¹.
As for AUAAAAGCGCCAGAACUACAGAAAUGUACUUGACGAGGAGGUGGUUUAUCGAAUUUUCGGCGGACGCCUCCAAA, in the series with glucosamine-6-phosphate [1], the “self-cleavage kobs at 40 uM GlcN6P” value is below 1e-05 s⁻¹. Moreover, the “self-cleavage kobs at 2500 uM GlcN6P” value with glucosamine-6-phosphate [3] is below 1e-05 s⁻¹. In addition, in the series with glucosamine-6-phosphate [5], the “self-cleavage kobs at 10000 uM GlcN6P” value is below 1e-05 s⁻¹.
As for AUAAAAGCGCCAAAACUACAGAAAUGUAGUUGACAAGGAGGAGGUUUAUCGAAUUUUCGGCGGAUGCCUCCAAA, in the series with glucosamine-6-phosphate [1], the “self-cleavage kobs at 40 uM GlcN6P” value was below 1e-05 s⁻¹. The “self-cleavage kobs at 160 uM GlcN6P” value in the series with glucosamine-6-phosphate [2] was below 1e-05 s⁻¹. Also, the “self-cleavage kobs at 640 uM GlcN6P” value in the series with glucosamine-6-phosphate [4] is below 1e-05 s⁻¹. The “self-cleavage kobs at 2500 uM GlcN6P” value with glucosamine-6-phosphate [3] is below 1e-05 s⁻¹.
Take AUAAAAGCGCCAGAACUACAGAAAUGUAUUUGACGAGGAGGAGGUUUAUCGAAUUUUCGGCGUAUGCCUCCAAA: the “self-cleavage kobs at 40 uM GlcN6P” value in the series with glucosamine-6-phosphate [1] was below 1e-05 s⁻¹. Further, the “self-cleavage kobs at 160 uM GlcN6P” value in the series with glucosamine-6-phosphate [2] was below 1e-05 s⁻¹. Further, the “self-cleavage kobs at 640 uM GlcN6P” value with glucosamine-6-phosphate [4] is below 1e-05 s⁻¹. The “self-cleavage kobs at 10000 uM GlcN6P” value in the series with glucosamine-6-phosphate [5] was below 1e-05 s⁻¹.
AUAAAAGCGCCAGAACUACAGAAAUGUAGUUGAUGAGUAGGAGGUUUAUCGAAUUUUCGGCGGAUGCCUCCAAA: the “self-cleavage kobs at 40 uM GlcN6P” value with glucosamine-6-phosphate [1] is below 1e-05 s⁻¹. The “self-cleavage kobs at 160 uM GlcN6P” value with glucosamine-6-phosphate [2] is below 1e-05 s⁻¹. Also, in the series with glucosamine-6-phosphate [4], the “self-cleavage kobs at 640 uM GlcN6P” value is below 1e-05 s⁻¹. For the same variant, the “self-cleavage kobs at 10000 uM GlcN6P” value with glucosamine-6-phosphate [5] was below 1e-05 s⁻¹.
As to AUAAAAGAGCCAGAACUACAGAAAUGUAGUUGACGAGGAGGAGGUUUAUCGACUUUUCAGCGGAUGCAUCCAAA, the “self-cleavage kobs at 40 uM GlcN6P” value in the series with glucosamine-6-phosphate [1] was below 1e-05 s⁻¹. Besides, in the series with glucosamine-6-phosphate [5], the “self-cleavage kobs at 10000 uM GlcN6P” value was below 1e-05 s⁻¹.
As to AUAAAAGCGCCAGAACUACAGAAAUGUAGUUCACGAGGAGGAGGUUUAUCGCAUUUUCGGCGGAUGCCUCCAAA, in the series with glucosamine-6-phosphate [1], the “self-cleavage kobs at 40 uM GlcN6P” value was below 1e-05 s⁻¹. For the same variant, the “self-cleavage kobs at 160 uM GlcN6P” value in the series with glucosamine-6-phosphate [2] is below 1e-05 s⁻¹. The “self-cleavage kobs at 640 uM GlcN6P” value with glucosamine-6-phosphate [4] is below 1e-05 s⁻¹. In addition, in the series with glucosamine-6-phosphate [3], the “self-cleavage kobs at 2500 uM GlcN6P” value is below 1e-05 s⁻¹.
For the variant AUAAAAGCGCCAGCGCUACAGAAAUGUAGUUGACGAGGAGGAGGUUUAUCGAAUUUUCGGCGGAUGCCUUCAAA, the “self-cleavage kobs at 40 uM GlcN6P” value in the series with glucosamine-6-phosphate [1] turned out to be 6.72e-05 ± 1.7e-05 s⁻¹. In addition, the “self-cleavage kobs at 160 uM GlcN6P” value in the series with glucosamine-6-phosphate [2] stood at 0.000124 ± 2.7e-05 s⁻¹. Moreover, in the series with glucosamine-6-phosphate [4], the “self-cleavage kobs at 640 uM GlcN6P” value came to 0.000547 ± 0.00017 s⁻¹. For the same variant, the “self-cleavage kobs at 2500 uM GlcN6P” value in the series with glucosamine-6-phosphate [3] was 0.00207 ± 0.00058 s⁻¹.
Take AUAAAAGCCCCAGAACUACAGAAAUGUAGUUGACGAGGAGGAGGUUUAUCGAAAUGUCGGCGGAUACCUCCAAA: the “self-cleavage kobs at 40 uM GlcN6P” value with glucosamine-6-phosphate [1] was below 1e-05 s⁻¹.
Take AUAAAAGCGCAAGAACUACAGAAAUGUAGUUGACGAGGAGGAGGUUUAUCGAAUUUUCGGCGGAUGCCGCCAAA: in the series with glucosamine-6-phosphate [1], the “self-cleavage kobs at 40 uM GlcN6P” value turned out to be 5.85e-05 ± 9.2e-06 s⁻¹. Besides, the “self-cleavage kobs at 160 uM GlcN6P” value in the series with glucosamine-6-phosphate [2] stood at 0.000398 ± 0.00018 s⁻¹. The “self-cleavage kobs at 640 uM GlcN6P” value in the series with glucosamine-6-phosphate [4] turned out to be 0.000166 ± 4.5e-05 s⁻¹. In addition, the “self-cleavage kobs at 10000 uM GlcN6P” value in the series with glucosamine-6-phosphate [5] worked out at 5.17e-05 ± 1.1e-05 s⁻¹.
Regarding AUAAAAGCGCCAGAAUUACAGAAAUGUAGUUGACGAGGAGGAGGUUUAUCGAAUUGUCGGCGGAUGCCUCCAAA, the “self-cleavage kobs at 40 uM GlcN6P” value with glucosamine-6-phosphate [1] worked out at 0.000579 ± 9.9e-05 s⁻¹. For the same variant, in the series with glucosamine-6-phosphate [2], the “self-cleavage kobs at 160 uM GlcN6P” value stood at 0.000979 ± 0.0002 s⁻¹. Moreover, in the series with glucosamine-6-phosphate [4], the “self-cleavage kobs at 640 uM GlcN6P” value stood at 0.00302 ± 0.00067 s⁻¹. Besides, the “self-cleavage kobs at 2500 uM GlcN6P” value with glucosamine-6-phosphate [3] was found to be 0.00709 ± 0.0016 s⁻¹. Moreover, in the series with glucosamine-6-phosphate [5], the “self-cleavage kobs at 10000 uM GlcN6P” value was found to be 0.0241 ± 0.0047 s⁻¹.
With AUAAAAGCGCCAGAACUACAGAAAUGUAGUUGACGAGCUGGAGGUUUAUCGAAUUUUCGUCGGAUGCCUCCAAA, in the series with glucosamine-6-phosphate [1], the “self-cleavage kobs at 40 uM GlcN6P” value was below 1e-05 s⁻¹. Also, the “self-cleavage kobs at 2500 uM GlcN6P” value with glucosamine-6-phosphate [3] was below 1e-05 s⁻¹. The “self-cleavage kobs at 10000 uM GlcN6P” value with glucosamine-6-phosphate [5] is below 1e-05 s⁻¹.
As for AUAAAAGCGCGAGAACUACAGAAAUGUAGUUGACGAGGAGGAGGUUUAUCGAACUUUCGGCGGAUGCCUUCAAA, the “self-cleavage kobs at 40 uM GlcN6P” value with glucosamine-6-phosphate [1] is below 1e-05 s⁻¹. Further, the “self-cleavage kobs at 10000 uM GlcN6P” value with glucosamine-6-phosphate [5] was below 1e-05 s⁻¹.
Regarding AUAAAAGCGCAAGAACUACAGAAAUGUAUUUGACGAGGAGGAGGUUUAUGGAAUUUUCGGCGGAUGCCUCCAAA, the “self-cleavage kobs at 40 uM GlcN6P” value with glucosamine-6-phosphate [1] is 6.35e-05 ± 1.7e-05 s⁻¹. Also, in the series with glucosamine-6-phosphate [2], the “self-cleavage kobs at 160 uM GlcN6P” value turned out to be 0.000296 ± 0.00011 s⁻¹. The “self-cleavage kobs at 2500 uM GlcN6P” value with glucosamine-6-phosphate [3] worked out at 5.28e-05 ± 2.3e-05 s⁻¹.
